# Results from patent publication US7192728B2, “Screening assays for agents that alter inhibitor of apoptosis (IAP) protein regulation of caspase activity” (The Burnham Institute, priority 1997, dated 2007).
# What was measured:
# caspase-7 = target: T1, caspase-7 (Homo sapiens, UniProt P55210); assay: Inhibition of purified recombinant caspase-7, DEVD substrate hydrolysis and progress curves; type: biochemical
# T1 construct: Purified active caspase concentrations ranged from 0.1 nM to 10 nM; His6; made in house; host or cells: E. coli BL21(DE3)pLysS
# T1 sequence (P55210 24-198 limits assumed): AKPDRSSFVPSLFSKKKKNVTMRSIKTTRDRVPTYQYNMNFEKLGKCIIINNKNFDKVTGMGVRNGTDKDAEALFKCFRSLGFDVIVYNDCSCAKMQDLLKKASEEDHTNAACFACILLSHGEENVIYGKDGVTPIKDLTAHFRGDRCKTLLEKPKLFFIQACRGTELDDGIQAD
# T1 sequence (P55210 207-303 limits assumed): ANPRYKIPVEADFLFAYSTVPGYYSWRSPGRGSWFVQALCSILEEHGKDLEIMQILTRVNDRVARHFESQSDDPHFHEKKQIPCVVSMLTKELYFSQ
# Procedure: Purified recombinant caspase-1, caspase-3, caspase-6, caspase-7 or caspase-8 were incubated with DEVD-pNA, either alone or with a 10-fold to 50-fold molar excess of GST-XIAP (20 μM) and substrate hydrolysis was measured. Purified active caspase concentrations ranged from 0.1 nM to 10 nM. XIAP concentration ranged from 0.1 nM to 500 nM. Assays were performed in caspase buffer (50 mM Tris, pH 7.4, 100 mM NaCl, 10% sucrose, 5–10 mM DTT, 1 mM EDTA and 0.1% CHAPS).
# Caspase activity was determined essentially as described in Example II, using the benzylyoxycarbonyl-DEVD-AFC (SEQ ID NO: 2) substrate and was assayed at 37° C. using the Perkin-Elmer LS50B fluorometric plate reader in the kinetic mode with excitation and emission wavelengths of 400 nm and 505 nm, respectively. […] Reactions were performed in caspase buffer (50 mM Hepes, 100 mM NaCl, 1 mM EDTA, 0.1% CHAPS, 10% sucrose, 5 mM DTT). The inhibition constant, Ki, was calculated as described (Zhou et al., supra, 1997).
# caspase-8 = target: T2, caspase-8 (Homo sapiens, UniProt Q14790); assay: Inhibition of purified recombinant caspase-8, DEVD substrate hydrolysis; type: biochemical
# T2 construct: a cDNA encoding the catalytic subunit of caspase-8 (Ser 217 to the C-terminus); His6; made in house; host or cells: E. coli BL21(DE3)pLysS
# T2 sequence (Q14790 217-374 limits assumed): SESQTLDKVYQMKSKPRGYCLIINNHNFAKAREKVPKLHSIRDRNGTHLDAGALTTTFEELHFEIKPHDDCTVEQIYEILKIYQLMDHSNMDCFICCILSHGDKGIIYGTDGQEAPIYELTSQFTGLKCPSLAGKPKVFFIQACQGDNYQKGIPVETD
# T2 sequence (Q14790 385-479 limits assumed): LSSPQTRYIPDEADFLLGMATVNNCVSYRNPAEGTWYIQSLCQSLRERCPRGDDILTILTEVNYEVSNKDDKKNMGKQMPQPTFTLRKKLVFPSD
# Procedure: Purified recombinant caspase-1, caspase-3, caspase-6, caspase-7 or caspase-8 were incubated with DEVD-pNA, either alone or with a 10-fold to 50-fold molar excess of GST-XIAP ([…]) and substrate hydrolysis was measured. Purified active caspase concentrations ranged from 0.1 nM to 10 nM. XIAP concentration ranged from 0.1 nM to 500 nM. Assays were performed in caspase buffer (50 mM Tris, pH 7.4, 100 mM NaCl, 10% sucrose, 5–10 mM DTT, 1 mM EDTA and 0.1% CHAPS).
# Equilibria were determined from progress curves when substrate hydrolysis reached a steady-state; slopes were calculated by curve fit analysis using the cricket graph program. Experiments were performed using purified recombinant caspase-3, caspase-6, or caspase-7. DEVD-AFC hydrolysis was measured using 0.1 nM caspase and a range of concentrations (0.2 to 12 μM) of recombinant XIAP (rXIAP). […] Average ratio velocities (vi/vo, where “vi” indicates presence of GST-XIAP and “vo” indicates absence of GST-XIAP) were determined.
# [1] = test system: HeLa cell nuclei in cytosolic extract; assay: Apoptosis of isolated nuclei in cell-free system (cytochrome c/dATP); settings: 0.4 μM protein with 10 μM cytochrome c and 1 mM dATP; 37° C., 60 min; baseline about 15%, cytochrome c/dATP alone >95%
# Procedure: Cells were washed with ice cold buffer A (20 mM Hepes (pH 7.5), 10 mM KCl, 1.5 mM MgCl2, 1 mM EDTA, 1 mM DTT and 0.1 mM PMSF) and suspended in 1 vol buffer A, then incubated on ice for 20 min. 293 cells were disrupted by passage 15× through a 26 gauge needle and Jurkat T cells were disrupted by dounce homogenization in 2 ml using 15 strokes with a pestle B. Cell extracts (10–15 mg total protein/ml) were clarified by centrifugation at 16,000×g for 30 min, then the NaCl concentration was increased by 50 mM. Cytosolic fractions were used immediately or stored frozen at −80° C.
# Isolated nuclei were prepared from HeLa cells (Martin et al., supra, 1995). Approximately 5×10^4 to 1×10^5 nuclei were added to 20 μl cytosolic extract and apoptosis was initiated by adding 10 μM horse heart cytochrome c (Sigma, Inc.; St. Louis Mo.) and 1 mM dATP, alone (positive control) or with cytochrome c, dATP and either 0.4 μM GST-XIAP or 0.4 μM GST-Bcl-2. Following incubation at 37° C. for 60 min., nuclei were stained with 1 μg/ml of acridine orange and ethidium bromide and the percentage nuclei with apoptotic features, including extremely condensed chromatin and the genesis of fragmentation of nuclei, was determined.
# [2] = test system: pro-caspase-3 processing induced by cytochrome c; assay: Cytochrome c-induced processing of pro-caspase-3 in 293 cytosolic extracts; type: biochemical, human; settings: immunoblot
# Procedure: Samples were incubated at 30° C. for 30 minutes. Extracts were then separated by SDS-PAGE electrophoresis, transferred to nitrocellulose and incubated with antisera specific for the zymogen and large subunit of caspase-3.
# Briefly, cells were washed with ice-cold buffer A (20 mM Hepes [pH 7.5], 10 mM KCl, 1.5 mM MgCl2, 1 mM EDTA, and 1 mM DTT) and suspended in 1 volume of buffer A. Cells were incubated on ice for 20 minutes and then disrupted by passage through a 26 gauge needle 15 times. Cell extracts were clarified by centrifugation at 16,000×g for 30 minutes and the resulting supernatants were stored at −80° C. For initiating caspase activation, either 10 μM horse heart cytochrome c (Sigma, Inc.) together with 1 mM dATP, or 100 nM of purified recombinant caspase-8, was added to extracts (10–15 mg total protein/ml).
# [3] = DEVD-AFC hydrolysis with/without GST-XIAP
substance,measurement,setting,value
"XIAP: X chromosome linked inhibitor of apoptosis protein (Genbank U32974), used mostly as recombinant GST fusion or expressed from plasmid",inhibition of processing of DEVD-pNA by caspase-7,caspase-7; 10-fold molar excess,greater than 95%
same,"average ratio velocity (vi/vo), caspase-7",caspase-7; [3],less than 0.2
same,Ki,"caspase-7; progress curve analysis, DEVD-AFC 0.1 mM, 0.1 nM caspase, read-out: inhibition constant (Ki) for caspase-7",~0.2 nM
same,interference with substrate cleavage by caspase-8,caspase-8; 50-fold molar excess,did not interfere
same,"average ratio velocity (vi/vo), caspase-8",caspase-8; [3],about 1.0
same,apoptotic nuclei,[1],about 15%
same,concentration that effectively abolished cytochrome c-induced processing of pro-caspase-3,[2],0.1 to 0.2 µM
